Test results: US20250304666A1 (ALCHEMAB THERAPEUTICS, published 2025)
Residue numbers refer to the chain shown, from its start. Values belong to the binder of their own block, whether it stands above or below them.

What was measured:
[1] = biological target: T1, non-reduced CFH; assay: direct ELISA on non-reduced CFH
T1 construct: also called CFH (NON-REDUCED)
T1 chain: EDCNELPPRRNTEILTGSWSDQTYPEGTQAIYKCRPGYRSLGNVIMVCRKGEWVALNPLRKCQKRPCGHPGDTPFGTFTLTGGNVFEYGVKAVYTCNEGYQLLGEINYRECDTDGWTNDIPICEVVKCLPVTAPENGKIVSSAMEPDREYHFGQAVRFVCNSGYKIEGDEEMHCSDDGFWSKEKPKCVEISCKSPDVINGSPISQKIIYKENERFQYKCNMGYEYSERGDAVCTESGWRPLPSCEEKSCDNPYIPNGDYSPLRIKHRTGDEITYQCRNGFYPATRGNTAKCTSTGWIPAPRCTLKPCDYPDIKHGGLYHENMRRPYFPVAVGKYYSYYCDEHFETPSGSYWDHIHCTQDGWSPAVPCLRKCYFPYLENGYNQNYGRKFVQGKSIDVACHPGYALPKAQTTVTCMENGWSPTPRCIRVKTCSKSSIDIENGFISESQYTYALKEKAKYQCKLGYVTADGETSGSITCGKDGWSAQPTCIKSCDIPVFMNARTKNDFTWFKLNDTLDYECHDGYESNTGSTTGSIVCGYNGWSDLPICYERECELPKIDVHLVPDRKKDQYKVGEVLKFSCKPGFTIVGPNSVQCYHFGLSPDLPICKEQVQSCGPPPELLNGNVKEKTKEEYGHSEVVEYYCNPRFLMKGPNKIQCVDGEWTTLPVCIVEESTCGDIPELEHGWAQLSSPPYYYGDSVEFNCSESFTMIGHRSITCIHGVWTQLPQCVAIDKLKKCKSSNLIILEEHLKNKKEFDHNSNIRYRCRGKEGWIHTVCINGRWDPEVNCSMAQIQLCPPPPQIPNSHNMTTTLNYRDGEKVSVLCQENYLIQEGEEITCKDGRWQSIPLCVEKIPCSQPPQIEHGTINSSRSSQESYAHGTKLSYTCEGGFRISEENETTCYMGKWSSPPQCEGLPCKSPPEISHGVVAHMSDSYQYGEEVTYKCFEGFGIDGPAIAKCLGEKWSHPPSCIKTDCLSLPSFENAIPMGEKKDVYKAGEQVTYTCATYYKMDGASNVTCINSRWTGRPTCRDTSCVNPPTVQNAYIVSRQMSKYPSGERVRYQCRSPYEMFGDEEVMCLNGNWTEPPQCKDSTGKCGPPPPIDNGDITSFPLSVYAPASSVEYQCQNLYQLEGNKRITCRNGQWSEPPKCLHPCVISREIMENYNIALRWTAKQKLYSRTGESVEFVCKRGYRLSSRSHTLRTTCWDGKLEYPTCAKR

[2] = biological target: T2, reduced CFH (Homo sapiens (Human), UniProt P08603 860-1231, limits assumed); assay: ELISA on reduced CFH after heating the mAb (70 C, 1 h, as Figure 16)
T2 construct: also called CFH (reduced)
T2 sequence: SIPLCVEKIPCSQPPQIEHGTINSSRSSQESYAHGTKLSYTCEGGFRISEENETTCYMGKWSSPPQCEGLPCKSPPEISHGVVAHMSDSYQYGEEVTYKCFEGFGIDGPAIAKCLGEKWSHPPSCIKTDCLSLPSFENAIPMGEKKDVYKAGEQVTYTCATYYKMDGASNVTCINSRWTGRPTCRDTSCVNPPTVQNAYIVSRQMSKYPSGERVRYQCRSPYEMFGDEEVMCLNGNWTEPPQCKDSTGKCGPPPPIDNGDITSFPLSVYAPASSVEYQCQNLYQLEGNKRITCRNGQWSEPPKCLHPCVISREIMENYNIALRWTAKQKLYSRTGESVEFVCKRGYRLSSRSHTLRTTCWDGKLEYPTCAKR

[3] = biological target: T3, reduced CFHR5 (UniProt Q9BXR6 19-569, limits assumed); assay: ELISA on reduced CFHR5
T3 sequence (looked up): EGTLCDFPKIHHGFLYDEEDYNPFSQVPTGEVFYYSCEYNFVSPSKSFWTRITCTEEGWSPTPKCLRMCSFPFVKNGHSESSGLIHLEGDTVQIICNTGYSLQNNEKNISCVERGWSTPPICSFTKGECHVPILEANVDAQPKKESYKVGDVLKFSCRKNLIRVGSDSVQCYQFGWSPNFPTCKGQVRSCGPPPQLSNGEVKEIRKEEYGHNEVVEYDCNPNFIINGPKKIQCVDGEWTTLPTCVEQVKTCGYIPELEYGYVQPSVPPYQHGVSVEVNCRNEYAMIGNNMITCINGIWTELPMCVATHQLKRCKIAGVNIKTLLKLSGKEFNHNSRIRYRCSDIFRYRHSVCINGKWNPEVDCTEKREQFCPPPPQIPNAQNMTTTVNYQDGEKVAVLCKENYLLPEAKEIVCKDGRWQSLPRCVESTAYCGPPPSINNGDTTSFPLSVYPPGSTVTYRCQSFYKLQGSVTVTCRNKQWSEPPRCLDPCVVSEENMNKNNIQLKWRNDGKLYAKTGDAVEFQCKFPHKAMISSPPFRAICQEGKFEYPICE

[4] = biological target: T4, immobilised biotinylated full-length CFH (reduced) (Homo sapiens (Human), UniProt P08603 19-1231, biotinylated; reduced with 20 mM dithiothreitol); assay: BLI (Octet), biotinylated reduced CFH on streptavidin sensors, antibody 33.3-2.08 nM as analyte, 1:1 global fit; lower end of the printed KD range
T4 construct: Purified endogenous full-length CFH immobilised by biotin on streptavidin BLI sensors; also called immobilised CFH; surface immobilised CFH
Experimental: Biolayer interferometry (BLI, Octet 96Red) was used to measure binding kinetics of the interactions between anti-CFH antibodies and CFH. The CFH used for kinetics measurements was purified endogenous CFH was biotinylated and reduced with 20 mM dithiothreitol (DTT). An irrelevant protein was treated in the same way as a negative control reference. The CFH or irrelevant control ligands were each immobilised via the conjugated biotin onto a set of streptavidin (SA) sensor tips. Sensors were dipped into reference kinetics buffer (Phosphate buffered saline (PBS), pH 7.4, 0.05% Tween-20, 2% w/v not fat milk powder) to achieve a steady baseline. Association was measured over 300 s by dipping the sensors into an analyte concentration series of anti-CFH antibody (33.3-2.08 nM in kinetics buffer) as well as a no analyte control (kinetics buffer only). Dissociation was measured over 1500 s by dipping the sensors into kinetics buffer only. Baseline, association and dissociation steps were all measured with sensors shaking at 800 rpm and at a temperature of 23° C. Data was analysed with Data Analysis HT 11.1.0.25 software. Data from reference sensors and analyte control were subtracted. Data was corrected by aligning y-axis to average of baseline 5 s before association, inter step correction aligned to start of baseline and using Savitzky-Golay filtering. […]

EC50 (read off the curve) [1]: ~0.2 nM
Harsh Heat challenge ELISA value [2]: 0.04
B1: ATL4717 (antibody, human IgG1, kappa, V domains shown)
VH: QVQLVESGGGMVQPGRSLRLSCAASGFTFSIYGMHWVRQAPGRGLEWVAVMSFDGKTKYYADSVKGRFTISRDNSKNTLYLQMNSLRRVDTAVYYCAKGGATAAVFDSWGQGTLVTVSS
VL: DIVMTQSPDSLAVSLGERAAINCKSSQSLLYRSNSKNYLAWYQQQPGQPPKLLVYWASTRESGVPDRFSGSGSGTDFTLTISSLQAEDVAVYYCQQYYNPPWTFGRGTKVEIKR
notes: Human IgG1; also called ATL0004717; ATL04717

Harsh Heat challenge ELISA value [2]: 0.49
binding result [3]: no binding (tested: 100 ug/ml)
Kd [4]: 0.402 to 1.46 nM
B2: ATL5170 (antibody, human IgG1, kappa, V domains shown)
VH: B1 VH with M11V, I31N, R43K, M51T, R88A, V89E, F106L
VL: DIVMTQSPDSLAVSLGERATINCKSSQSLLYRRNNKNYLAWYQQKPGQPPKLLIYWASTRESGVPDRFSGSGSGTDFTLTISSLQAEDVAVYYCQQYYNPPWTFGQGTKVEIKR
notes: IgG1; also called ATL_0005170
